The results in this text go back to patent US20080220446A1 (published 2008).

Sequences and labels used below:
B1: tissue-type plasminogen activator (tPA) (enzyme, human, UniProt P00750 36-562, looked up)
chain: SYQVICRDEKTQMIYQQHQSWLRPVLRSNRVEYCWCNSGRAQCHSVPVKSCSEPRCFNGGTCQQALYFSDFVCQCPEGFAGKCCEIDTRATCYEDQGISYRGTWSTAESGAECTNWNSSALAQKPYSGRRPDAIRLGLGNHNYCRNPDRDSKPWCYVFKAGKYSSEFCSTPACSEGNSDCYFGNGSAYRGTHSLTESGASCLPWNSMILIGKVYTAQNPSAQALGLGKHNYCRNPDGDAKPWCHVLKNRRLTWEYCDVPSCSTCGLRQYSQPQFRIKGGLFADIASHPWQAAIFAKHRRSPGERFLCGGILISSCWILSAAHCFQERFPPHHLTVILGRTYRVVPGEEEQKFEVEKYIVHKEFDDDTYDNDIALLQLKSDSSRCAQESSVVRTVCLPPADLQLPDWTECELSGYGKHEALSPFYSERLKEAHVRLYPSSRCTSQHLLNRTVTDNMLCAGDTRSGGPQANLHDACQGDSGGPLVCLNDGRMTLVGIISWGLGCGQKDVPGVYTKVTNYLDWIRDNMRP
notes: Full-length commercial tPA; also called Actilyse; Alteplase
B2: recombinant human β2-glycoprotein I (insect cells) (other, UniProt P02749 20-345, looked up)
chain: GRTCPKPDDLPFSTVVPLKTFYEPGEEITYSCKPGYVSRGGMRKFICPLTGLWPINTLKCTPRVCPFAGILENGAVRYTTFEYPNTISFSCNTGFYLNGADSAKCTEEGKWSPELPVCAPIICPPPSIPTFATLRVYKPSAGNNSLYRDTAVFECLPQHAMFGNDTITCTTHGNWTKLPECREVKCPFPSRPDNGFVNYPAKPTLYYKDKATFGCHDGYSLDGPEEIECTKLGNWSAMPSCKASCKVPVKKATVVYQGERVKIQEKFKNGMLHGDKVSFFCKNKEKKCSYTEDAQCIDGTIEVPKCFKEHSSLAFWKTDASDVKPC
notes: also called recombinant β2GPI; rβ2GPI

In assay [1] the target is abciximab (ReoPro). In words: cell-based or functional assay.
For assay [2], the target named is T1, recombinant human Zn2+-chelated insulin (Monotard) (human, UniProt P01308 90-110; P01308 25-54). Kind of assay: cell-based or functional assay.
For assay [3], the target named is T2, rapid acting human insulin analogue (NovoRapid Flexpen) (human, UniProt P01308 90-110; P01308 25-54). Kind of assay: cell-based or functional assay.
Assay [4] addresses Etanercept (Enbrel), native. In words: cell-based or functional assay.
In assay [5] the target is Infliximab (Remicade), human-murine chimeric monoclonal antibody. Kind of assay: cell-based or functional assay.
For assay [6], the target named is T3, human coagulation factor VIII (FVIII) (Aafact) (human, UniProt P00451 20-2351).
T3 chain 1: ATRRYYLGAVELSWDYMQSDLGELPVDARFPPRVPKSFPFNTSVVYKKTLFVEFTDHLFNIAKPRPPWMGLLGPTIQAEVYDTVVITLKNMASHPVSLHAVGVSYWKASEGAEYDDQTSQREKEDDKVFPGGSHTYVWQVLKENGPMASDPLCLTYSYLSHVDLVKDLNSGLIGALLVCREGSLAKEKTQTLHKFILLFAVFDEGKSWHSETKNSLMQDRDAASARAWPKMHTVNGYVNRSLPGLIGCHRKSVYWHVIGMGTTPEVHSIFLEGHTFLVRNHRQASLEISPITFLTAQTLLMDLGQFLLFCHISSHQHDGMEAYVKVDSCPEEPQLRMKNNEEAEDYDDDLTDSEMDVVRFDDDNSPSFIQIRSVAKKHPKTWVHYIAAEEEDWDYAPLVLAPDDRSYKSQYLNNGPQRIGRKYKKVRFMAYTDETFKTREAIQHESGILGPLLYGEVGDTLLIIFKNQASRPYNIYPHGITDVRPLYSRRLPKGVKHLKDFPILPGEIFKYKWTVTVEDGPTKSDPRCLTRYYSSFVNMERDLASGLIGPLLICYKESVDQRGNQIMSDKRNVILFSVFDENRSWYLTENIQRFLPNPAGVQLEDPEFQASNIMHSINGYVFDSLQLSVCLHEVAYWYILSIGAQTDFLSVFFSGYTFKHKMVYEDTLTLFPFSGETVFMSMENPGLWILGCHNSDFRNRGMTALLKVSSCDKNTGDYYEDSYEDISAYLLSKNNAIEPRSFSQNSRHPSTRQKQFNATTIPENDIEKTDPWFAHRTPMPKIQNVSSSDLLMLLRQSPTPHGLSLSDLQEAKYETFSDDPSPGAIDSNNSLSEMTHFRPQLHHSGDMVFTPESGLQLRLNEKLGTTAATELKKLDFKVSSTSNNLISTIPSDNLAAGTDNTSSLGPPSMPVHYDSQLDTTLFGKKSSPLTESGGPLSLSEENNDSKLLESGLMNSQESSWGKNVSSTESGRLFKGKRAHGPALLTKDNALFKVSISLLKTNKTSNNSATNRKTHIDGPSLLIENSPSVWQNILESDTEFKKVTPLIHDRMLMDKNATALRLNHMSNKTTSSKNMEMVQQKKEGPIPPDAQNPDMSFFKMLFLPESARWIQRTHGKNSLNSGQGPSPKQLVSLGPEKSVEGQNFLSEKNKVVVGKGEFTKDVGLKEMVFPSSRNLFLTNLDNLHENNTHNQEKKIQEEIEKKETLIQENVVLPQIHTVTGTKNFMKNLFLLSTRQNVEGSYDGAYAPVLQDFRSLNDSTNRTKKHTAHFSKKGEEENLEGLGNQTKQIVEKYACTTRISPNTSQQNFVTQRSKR
T3 chain 2: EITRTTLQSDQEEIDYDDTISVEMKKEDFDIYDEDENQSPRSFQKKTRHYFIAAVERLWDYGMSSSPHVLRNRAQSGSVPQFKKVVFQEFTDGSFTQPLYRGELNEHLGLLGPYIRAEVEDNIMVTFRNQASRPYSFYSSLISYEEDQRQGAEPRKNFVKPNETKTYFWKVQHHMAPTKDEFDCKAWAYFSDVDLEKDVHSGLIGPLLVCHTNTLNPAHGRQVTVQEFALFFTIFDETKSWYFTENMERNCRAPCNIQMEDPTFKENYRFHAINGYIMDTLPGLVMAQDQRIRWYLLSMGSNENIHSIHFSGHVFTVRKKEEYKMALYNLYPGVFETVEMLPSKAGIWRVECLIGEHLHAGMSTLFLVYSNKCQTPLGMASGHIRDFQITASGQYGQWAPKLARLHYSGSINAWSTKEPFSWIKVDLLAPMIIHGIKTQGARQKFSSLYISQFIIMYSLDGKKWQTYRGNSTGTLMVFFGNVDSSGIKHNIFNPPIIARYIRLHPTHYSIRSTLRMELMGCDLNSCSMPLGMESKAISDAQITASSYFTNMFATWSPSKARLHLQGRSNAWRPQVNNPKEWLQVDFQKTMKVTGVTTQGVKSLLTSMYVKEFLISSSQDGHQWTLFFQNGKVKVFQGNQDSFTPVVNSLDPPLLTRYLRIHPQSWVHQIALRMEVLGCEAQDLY
In words: ELISA, therapeutic coated on Nunc Immobilizer plate, concentration series of tPA, one-site binding fit. Here is the method:
(§1) Plates were washed twice with Tris buffered saline pH 7.2 containing 0.1% Tween20 (TBST) and blocked with PBS containing 1% Tween20 for 1 hour at room temperature. […] Plates were washed five times with TBST and incubated with peroxidase labeled anti-mouse immunoglobulins (RAMPO; DAKOCytomation, Glostrup, Denmark) diluted 1:3000 in PBST for 30 minutes at room temperature. Plates were washed five times with PBS 0.1% Tween20, and stained with 100 μL/well of tetramethyl-benzidine (TMB) substrate (Biosource Europe, Nivelles, Belgium). The reaction was terminated with 50 μL/well of 2 M H₂SO₄ and substrate conversion was read at 450 nm on a Spectramax340 microplate reader. Curves were fitted with a one-site binding model (GraphPad Prism version 4.02 for Windows, Graphpad Software, Calif., USA) from which Kd and Bmax were determined.

Assay [7] deals with abciximab (ReoPro). The assay is described as above. Here is the method:
as §1

Assay [8] has as its target T4, human albumin (Cealb, Sanquin-CLB) (human, UniProt P02768 25-609).
T4 construct: also called CeaIb
The description is as above. As for the experimental part: as §1

Assay [9] concerns the target T1, recombinant human Zn2+-chelated insulin …. Described as above. As for the experimental part: as §1
For assay [10], the target named is T2, rapid acting human insulin analogue …. Described as above. As for the experimental part:
as §1

The target of assay [11] is B1. In words: ELISA, tPA coated, concentration series of recombinant β2GPI. Here is the method:
(§2) Binding of β₂GPI was assessed with monoclonal antibody 2B2²².
(§3) The positive control was amyloid fibrin peptide FP13. […] C. […] Eluted fractions are analyzed on Western blot after SDS-PA electrophoresis. […] Signals are corrected for background fluorescence of CL, DXS, ThT and buffer.
On the technique in general: An ELISA detects its analyte on a solid surface through an enzyme-linked reagent.

For assay [12], the target named is B1. Kind of assay: ELISA, tPA immobilized, concentration series of recombinant β2GPI. As for the experimental part:
as §2, §3

For assay [13], the target named is T5, factor XII (purified human factor XII from plasma) (human, UniProt P00748 20-615).
T5 construct: also called FXII
T5 sequence (looked up): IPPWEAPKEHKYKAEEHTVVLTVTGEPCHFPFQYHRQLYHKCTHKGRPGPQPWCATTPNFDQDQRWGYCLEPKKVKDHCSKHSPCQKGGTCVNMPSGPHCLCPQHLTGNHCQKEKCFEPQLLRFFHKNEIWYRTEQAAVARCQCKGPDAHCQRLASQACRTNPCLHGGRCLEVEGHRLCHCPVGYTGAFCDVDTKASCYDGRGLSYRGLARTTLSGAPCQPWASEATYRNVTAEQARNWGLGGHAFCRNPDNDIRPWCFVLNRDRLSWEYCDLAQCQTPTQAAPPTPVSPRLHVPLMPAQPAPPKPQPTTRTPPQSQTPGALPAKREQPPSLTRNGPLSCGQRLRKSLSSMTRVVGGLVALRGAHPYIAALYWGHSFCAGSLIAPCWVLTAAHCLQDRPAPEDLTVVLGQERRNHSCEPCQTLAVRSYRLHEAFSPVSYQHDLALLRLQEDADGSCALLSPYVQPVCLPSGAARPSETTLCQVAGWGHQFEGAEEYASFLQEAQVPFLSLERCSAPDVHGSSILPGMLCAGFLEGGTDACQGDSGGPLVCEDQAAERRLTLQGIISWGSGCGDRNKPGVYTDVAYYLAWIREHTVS
In words: ELISA, factor XII coated, concentration series of recombinant β2GPI.

Assay [14] concerns the target T5, factor XII (purified human factor XII …). In words: ELISA, factor XII immobilized, concentration series of recombinant β2GPI. Here is the method:
as §2, §3

The target in assay [15] is B2. Kind of assay: SPR (Biacore), HGFA F immobilized on CM5 chip. Here is the method: A standardized amine coupling procedure was used to couple proteins with F domains to a CM5 chip (Biacore AB, Uppsala, Sweden). First, the dextran surface of the chips was activated by a 35 μl injection with a 1:1 mixture of 0.1 M N-hydroxysuccinimide (NHS) and 0.4 M N-ethyl-N′-(dimethylaminopropyl)carbodiimide (EDC) at a flow rate of 5 μl min.⁻¹. Then, the proteins were covalently coupled to the activated dextran surface. Remaining activated groups in each of the four flow channels were blocked by injection of 35 μl of 1 M ethanolamine hydrochloride pH 8.5. EDC, NHS and ethanolamine hydrochloride were obtained from Biacore. […] The flow rate was 10 μl min.⁻¹, the injection time was 120″. The running buffer during immobilization was 10 mM HEPES pH 7.4, 140 mM NaCl. Buffers were filtrated on a 0.22 μm filter (white GSWP, 47 mm, Millipore) and degassed at room temperature. For subsequent binding experiments, the running buffer was 10 mM HEPES pH 7.4, 140 mM NaCl, 1.5 mM CaCl₂, 10 mM εACA, 0.005% Tween-20. […] After each injection of protein, the chip was regenerated with 0.1 M H₃PO₄ pH 1.0.
On the technique in general: Surface plasmon resonance follows binding to a sensor surface in real time, without labels.

abciximab (ReoPro), sequence (VH, as listed by the source, chain 1 of 2): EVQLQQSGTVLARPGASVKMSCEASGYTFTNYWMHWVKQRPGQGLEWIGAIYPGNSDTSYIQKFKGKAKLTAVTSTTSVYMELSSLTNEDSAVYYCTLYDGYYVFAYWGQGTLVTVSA
abciximab (ReoPro), sequence (VL, as listed by the source, chain 2 of 2): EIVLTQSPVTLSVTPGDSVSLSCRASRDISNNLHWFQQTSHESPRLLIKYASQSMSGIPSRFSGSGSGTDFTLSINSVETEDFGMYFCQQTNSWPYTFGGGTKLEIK
T2 sequence (P01308 90-110 limits assumed, chain 1 of 2): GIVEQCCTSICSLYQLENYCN
T2 sequence (P01308 other isoform, or with tags, fused parts or gaps limits assumed, chain 2 of 2): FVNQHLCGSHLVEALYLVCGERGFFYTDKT
T1 sequence (P01308 25-54 limits assumed, chain 2 of 2): as the sequence (P01308 other isoform, or with tags, fused parts or gaps limits assumed, chain 2 of 2) above, with D28P counted along it

On to B1, for which the “tPA activation, Max. Activation (%) (tPA-dependent plasminogen activation, % of standardized positive control)” value with abciximab (ReoPro) [1] was 0%; in [2], 17.4%; in assay [3], 70.9%; in assay [4], 0%; in assay [5], 0%. The Bmax in assay [6] turned out to be 0.54 OD450 nm; with abciximab (ReoPro) [7] it was 0.533 OD450 nm; in assay [8] it was 1.23 OD450 nm; in assay [9], 0.756 OD450 nm; in assay [10], 3.62 OD450 nm.

As a reminder, the Kd is the constant that tells how readily two partners part at equilibrium. Regarding B2, the Kd was 51 nM in assay [11], 2.3 µg/mL in [12], 20 nM in assay [13] and 0.9 µg/mL in [14].

B3: chemically synthesized HGFA F domain (other)
chain: EKCFDETRYEYLEGGDRWARVRQGHVEQCECFGGRTWCEGTK
modifications: carboxy-terminal acetylated lysine residue
notes: domain: F domain; Immobilized on the second Biacore chip
As to B3, the binding result in [15] was “no binding (tested: 0-300 nM)”.
